# B1: DNA repair protein rad60 (Schizosaccharomyces pombe (strain ATCC 38366 / 972)), Q9USX3 (parent)
# chain: MDNLDEDDLAFFSKPIKKPPLNYAKQLIASSSDSEEESELDTNKQALEHINAQKNITHNENKSAEPLSRQSTILDADEGNQDVSDTTPNACLNEGRHSPKSAISCVTQPVSPVYNTRAAANLRNNSINSEAALSTTSSLLDDDFARRLEEIDRQVQEFEKSSSDMDVQIHTHKREIEEDDDNTSADVPLLKHSKSDHSTLYHSKSEFSTNEPVISVVLQLAVIGQRIPNSNISLPRDWEAPLFFKVKSNQQFRRVRIAYSERKKVDNVVLVFQNQRLWDYGTPKGAGMLKVDTRLVVHAYCHSDFISLKRIKELEVEKLSSVTEDSTAQTCKLITLLLRSSKSEDLRLSIPVDFTVKDLIKRYCTEVKISFHERIRLEFEGEWLDPNDQVQSTELEDEDQVSVVLD
# partner: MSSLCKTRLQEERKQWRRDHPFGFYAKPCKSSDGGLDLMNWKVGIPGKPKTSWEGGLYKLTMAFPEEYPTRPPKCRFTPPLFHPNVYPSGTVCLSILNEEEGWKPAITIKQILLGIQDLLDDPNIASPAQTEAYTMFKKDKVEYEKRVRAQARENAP
# Variants of: B1
# Details: with ubc9_schpo hus5, P40984
row,effect of a mutation on the interaction,Variant
1,disrupting interaction,MDNLDEDDLAFFSKPIKKPPLNYAKQLIASSSDSEEESELDTNKQALEHINAQKNITHNENKSAEPLSRQSTILDADEGNQDVSDTTPNACLNEGRHSPKSAISCVTQPVSPVYNTRAAANLRNNSINSEAALSTTSSLLDDDFARRLEEIDRQVQEFEKSSSDMDVQIHTHKREIEEDDDNTSADVPLLKHSKSDHSTLYHSKSEFSTNEPVISVVLQLAVIGQRIPNSNISLPRDWEAPLFFKVKSNQQFRRVRIAYSERKKVDNVVLVFQNQRLWDYGTPKGAGMLKVDTRLVVHAYCHSDFISLKRIKELEVEKLSSVTEDSTAQTCKLITLLLRSSKSEDLRLSIPVDFTVKDLIKRYCTEVKISFHERIRLEFRGEWLDPNDQVQSTELEDEDQVSVVLD [E380R]
